Several values for one entry are separate records, joined by “and”; a condition that tells them apart may be missing. Identical values can stand only once.
Legend:
[1] = molecular target: T1, recombinant human IP-10 (R&D Systems) (human, UniProt P02778 22-98); assay: Biacore
T1 construct: Bought recombinant protein; also called CXCL10; rhIP-10
T1 sequence: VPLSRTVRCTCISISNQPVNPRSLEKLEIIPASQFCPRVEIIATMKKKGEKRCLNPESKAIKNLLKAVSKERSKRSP

[2] = molecular target: T1, recombinant human IP-10 (R&D Systems); assay: cell-based or functional assay
[3] = molecular target: T2, B lymphocyte chemokine (BLC) (UniProt O43927 23-109, limits assumed); assay: ELISA with hybridoma supernatants
T2 sequence (looked up): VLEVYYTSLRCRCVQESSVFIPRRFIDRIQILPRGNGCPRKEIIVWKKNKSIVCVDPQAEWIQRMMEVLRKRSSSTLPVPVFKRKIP

B1: HuAIP12 G104A variant antibody (antibody, V domains shown)
VH: EVQLVQSGAEVKKPGATVKISCKVSGYTFTDYSMHWVRQAPGKGLKWMGWINTETGEPTYADDFKGRFTFTLDTSTSTAYMELSSLRSEDTAVYYCARNYDYDAYFDVWGQGTTVTVSS
VL: DIQMTQSPSSLSASVGDRVTITCKASQDINKYIAWYQQKPGKAPKLLIHYTSTLQPGIPSRFSGSGSGRDYTFTISSLQPEDIATYYCLQYDNLLFTFGQGTKLEIK
notes: Human gamma-1 / kappa, transiently expressed in 293-H cells
In the case of B1, the “fold faster off-rate (kd) than unmodified HuAIP12” value [1] is reported as about 2 fold, the “fold higher Kd than unmodified HuAIP12” value [1] is reported as over 20 fold and the “fold slower on-rate (ka) than unmodified HuAIP12” value [1] is reported as about 10 fold. The “fold weaker monovalent interaction than unmodified HuAIP12” value [1] was 20 fold.

B2: humanized monoclonal antibody HuAIP12 (antibody, IgG1, V domains shown)
VH: EVQLVQSGAEVKKPGATVKISCKVSGYTFTDYSMHWVRQAPGKGLKWMGWINTETGEPTYADDFKGRFTFTLDTSTSTAYMELSSLRSEDTAVYYCARNYDYDGYFDVWGQGTTVTVSS
VL: DIQMTQSPSSLSASVGDRVTITCKASQDINKYIAWYQQKPGKAPKLLIHYTSTLQPGIPSRFSGSGSGRDYTFTISSLQPEDIATYYCLQYDNLLFTFGQGTKLEIK
B2 was tested, and the “IC50 of inhibition of chemotaxis, donor 215” value (from here on “IC50 of inhibition … donor 215”) [2] was 0.142 mg/L, the “IC50 of inhibition of chemotaxis, donor 318” value (shortened to “IC50 of inhibition … donor 318”) [2] was 0.038 mg/L and the “IC50 of inhibition of chemotaxis, donor 1012” value [2] was 0.073 mg/L.

B3: humanized monoclonal antibody HuAIP13 (antibody, IgG1, V domains shown)
VH: EVQLVQSGAEVKKPGATVKISCKVSGYTFTDYSMHWVRQAPGKGLKWMGWINTEIGEPTYADDFKGRFTFTLDTSTSTAYMELSSLRSEDTAVYYCARNYDYDAYFDVWGQGTTVTVSS
VL: DIQMTQSPSSLSASVGDRVTITCKADQDINKYIAWYQQKPGKAPKLLLHHTSTLQPGIPSRFSGSGSGRDYTFTISSLQPEDIATYYCLQYDSLLFTFGQGTKLEIK
B3 was tested, and the “IC50 of inhibition … donor 215” value [2] was 0.139 mg/L, the “IC50 of inhibition … donor 318” value [2] was 0.045 mg/L and the “IC50 of inhibition of chemotaxis, donor 1012” value [2] was 0.077 mg/L.

B4: murine monoclonal antibody AIP12 (antibody, V domains shown)
VH: QIQLVQSGPELKKPGETVKISCKASGYTFTDYSMHWVKQAPGKGLKWMGWINTETGEPTYADDFKGRFAFSLETSASTAYLQINNLKNEDTATYFCARNYDYDGYFDVWGAGTTVTVSS
VL: DIQMTQSPSSLSASLGGKVTITCKASQDINKYIAWYQHKPGKGPRLLIHYTSTLQPGIPSRFSGSGSGRDYSFSISNLEPEDIATYYCLQYDNLLFTFGSGTKLEIK
notes: Mouse hybridoma antibody; Mouse IgG1/kappa is used as its isotype control; also called MuAIP12; MUAIP12
B4 was tested, and the “IC50 of inhibition … donor 215” value [2] was 0.13 mg/L, the “IC50 of inhibition … donor 318” value [2] was 0.041 mg/L and the “IC50 of inhibition of chemotaxis, donor 1012” value [2] was 0.091 mg/L. The “IC50 of inhibition of chemotaxis, donor 1022” value [2] was 0.135 mg/L and 0.051 mg/L and 0.086 mg/L and the binding result [3] was “no binding”.

B5: murine monoclonal antibody AIP13 (antibody, V domains shown)
VH: QIQLVQSGPELKKPGETVKISCKASGYTFTDYSMHWVKQAPGKGLKWMGWINTEIGEPTYADDFKGRFAFSLETSASTAYLQINNLKNEDTATYFCARNYDYDAYFDVWGAGTTVTVSS
VL: DIQMTQSPSSLSASLGGKVTITCKADQDINKYIAWYQHKPGRGPRLLLHHTSTLQPGIPSRFSGSGSGRDYSFSISNLEPADIATYYCLQYDSLLFTFGSGTKLEIK
notes: Mouse hybridoma antibody; Mouse IgG1/kappa is used as its isotype control; also called MuAIP13
B5 was tested, and the “IC50 of inhibition … donor 215” value [2] was 0.26 mg/L, the “IC50 of inhibition … donor 318” value [2] was 0.139 mg/L and the “IC50 of inhibition of chemotaxis, donor 1012” value [2] was 0.084 mg/L. The “IC50 of inhibition of chemotaxis, donor 1022” value [2] was 0.229 mg/L and 0.154 mg/L and 0.078 mg/L and the binding result [3] was “no binding”.

From US20080063646A1 (AbbVie / Abbott, published 2008)
